Source: the supplement of paper PMC9732359
± gives the uncertainty stated by the source.

Experiment: protein stability index of a GFP-peptide fusion (yeast GPS) (PSI 1-4); higher = more stable; sorted into four equal gates, so the index is relative within each strain
Method in brief: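 Peptides tiling yeast proteins in 17-residue segments were fused downstream of GFP, with Cherry expressed from the same plasmid. As a pooled library in yeast, mid-log cultures grown in leucine-free medium were sorted into four equal gates by GFP/Cherry fluorescence ratio. Gate plasmids were PCR-amplified and Illumina-sequenced, and barcodes linked reads to strains. Each peptide received a protein stability index equal to the sum of each gate's read frequency times its gate number.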

## ECADLWPRVASNSGVVV [RPL23A]
doa10∆
  protein stability index: 2.9 ± 0.17
pdr5∆
  protein stability index: 2.63 ± 0.1
san1∆
  protein stability index: 3.06 ± 0.11
ubr1∆
  protein stability index: 3.17 ± 0.062

## ESEKLVTPEDVMTISSL [RPC82]
doa10∆
  protein stability index: 3.23 ± 0.083
pdr5∆
  protein stability index: 3.13 ± 0.078
san1∆
  protein stability index: 3.05 ± 0.059
ubr1∆
  protein stability index: 3.26 ± 0.072

## DVEENRSEFIESLLNWI [YJR042W/NUP85]
doa10∆
  protein stability index: 3.19 ± 0.12
pdr5∆
  protein stability index: 3.08 ± 0.085
san1∆
  protein stability index: 3.35 ± 0.14
ubr1∆
  protein stability index: 3.34 ± 0.069

## TGLKLYSRITLIIDDPS [RPP1]
doa10∆
  protein stability index: 2.22 ± 0.065
pdr5∆
  protein stability index: 2.8 ± 0.077
san1∆
  protein stability index: 2.17 ± 0.062
ubr1∆
  protein stability index: 2.75 ± 0.086

## QDNHHITKVTENLFSKE [YMR129W/POM152]
doa10∆
  protein stability index: 2.86 ± 0.059
pdr5∆
  protein stability index: 2.8 ± 0.066
san1∆
  protein stability index: 2.99 ± 0.045
ubr1∆
  protein stability index: 3.1 ± 0.049

## LNLSLHKLDLAKRNLDA [SMC2]
doa10∆
  protein stability index: 2.28 ± 0.046
pdr5∆
  protein stability index: 2.78 ± 0.043
san1∆
  protein stability index: 2.62 ± 0.047
ubr1∆
  protein stability index: 2.17 ± 0.029

## FRENMSKEETVDFIKHS [PRE3]
doa10∆
  protein stability index: 3.11 ± 0.086
pdr5∆
  protein stability index: 3.19 ± 0.086
san1∆
  protein stability index: 3.16 ± 0.066
ubr1∆
  protein stability index: 3.24 ± 0.085

## WNKRDFMAFINACAKYG [ISW2]
doa10∆
  protein stability index: 1.21 ± 0.087
pdr5∆
  protein stability index: 1.24 ± 0.092
san1∆
  protein stability index: 1.34 ± 0.26
ubr1∆
  protein stability index: 1.15 ± 0.063

## WKRQISYFLKLLGNCYS [SRB8]
doa10∆
  protein stability index: 1.63 ± 0.038
pdr5∆
  protein stability index: 1.82 ± 0.042
san1∆
  protein stability index: 1.69 ± 0.071
ubr1∆
  protein stability index: 1.37 ± 0.037

## YLAENPDPNFENSIGYN [PRP8]
doa10∆
  protein stability index: 3.28 ± 0.065
pdr5∆
  protein stability index: 3.08 ± 0.061
san1∆
  protein stability index: 3.12 ± 0.088
ubr1∆
  protein stability index: 3.19 ± 0.054

## VGKQIVNIPSFMVRLDS [RPS9A]
doa10∆
  protein stability index: 2.59 ± 0.099
pdr5∆
  protein stability index: 2.69 ± 0.12
san1∆
  protein stability index: 2.42 ± 0.18
ubr1∆
  protein stability index: 2.62 ± 0.096

## DDESEQISLNRLIDSMK [RRI1]
doa10∆
  protein stability index: 3.03 ± 0.16
pdr5∆
  protein stability index: 3.11 ± 0.28
ubr1∆
  protein stability index: 3.15 ± 0.14

## KRKYLDIPIDEMTLPTS [SSN2]
doa10∆
  protein stability index: 3.1 ± 0.24
pdr5∆
  protein stability index: 2.81 ± 0.15
san1∆
  protein stability index: 2.77 ± 0.19
ubr1∆
  protein stability index: 3.21 ± 0.23

## FEENDHPNRVLEHLHST [COR1]
doa10∆
  protein stability index: 2.96 ± 0.049
pdr5∆
  protein stability index: 2.95 ± 0.052
san1∆
  protein stability index: 3 ± 0.055
ubr1∆
  protein stability index: 3.07 ± 0.049

## RVQVGDIVTVGQCRPIS [RPS11A]
doa10∆
  protein stability index: 3.14 ± 0.16
pdr5∆
  protein stability index: 3.26 ± 0.082
san1∆
  protein stability index: 3.07 ± 0.067
ubr1∆
  protein stability index: 3.23 ± 0.074

## MYTLSAQDEVFSLAFSP [ASC1]
doa10∆
  protein stability index: 2.24 ± 0.062
pdr5∆
  protein stability index: 2.82 ± 0.085
san1∆
  protein stability index: 2.78 ± 0.059
ubr1∆
  protein stability index: 2.75 ± 0.066

## MAPNTSRKQKVIKTLTV [RPL22B]
doa10∆
  protein stability index: 2.1 ± 0.18
pdr5∆
  protein stability index: 2 ± 0.088
san1∆
  protein stability index: 2.6 ± 0.13
ubr1∆
  protein stability index: 1.97 ± 0.093

## DNVSSQQMHEVRKELRG [RPP0]
doa10∆
  protein stability index: 2.4 ± 0.14
pdr5∆
  protein stability index: 2.45 ± 0.18
ubr1∆
  protein stability index: 2.82 ± 0.13

## QSSLDVAGLEDKFRKAC [SIR3]
doa10∆
  protein stability index: 3.62 ± 0.14
pdr5∆
  protein stability index: 3.18 ± 0.16
san1∆
  protein stability index: 3.42 ± 0.13
ubr1∆
  protein stability index: 3.06 ± 0.21

## ELRRPGVDNLRRMGILK [RPO31]
doa10∆
  protein stability index: 3.17 ± 0.079
pdr5∆
  protein stability index: 2.98 ± 0.067
san1∆
  protein stability index: 2.85 ± 0.06
ubr1∆
  protein stability index: 3.08 ± 0.039

## FITNVQSISQNSSSSTP [SWI1]
doa10∆
  protein stability index: 2.38 ± 0.069
pdr5∆
  protein stability index: 2.63 ± 0.063
san1∆
  protein stability index: 2.43 ± 0.064
ubr1∆
  protein stability index: 2.44 ± 0.05

## RPNRRGPRNTEEKGWVP [RPS2]
doa10∆
  protein stability index: 3.42 ± 0.15
pdr5∆
  protein stability index: 3.49 ± 0.13
san1∆
  protein stability index: 3.68 ± 0.12
ubr1∆
  protein stability index: 3.66 ± 0.079

## DLKESMVKGLLKSFTES [ECM29]
doa10∆
  protein stability index: 3.34 ± 0.26
pdr5∆
  protein stability index: 3 ± 0.19
san1∆
  protein stability index: 2.8 ± 0.1
ubr1∆
  protein stability index: 3.34 ± 0.096

## FQKETNMKVTILHGSKS [PRP28]
pdr5∆
  protein stability index: 3.38 ± 0.29
san1∆
  protein stability index: 3.21 ± 0.093
ubr1∆
  protein stability index: 3.18 ± 0.21

## RRQAVDVSPLRRVNQAI [RPS5]
doa10∆
  protein stability index: 2.63 ± 0.083
pdr5∆
  protein stability index: 2.62 ± 0.094
san1∆
  protein stability index: 2.69 ± 0.078
ubr1∆
  protein stability index: 2.75 ± 0.083

## RERQVNEKLADLGLEKE [RPC53]
doa10∆
  protein stability index: 3.2 ± 0.14
pdr5∆
  protein stability index: 3.4 ± 0.16
san1∆
  protein stability index: 3.06 ± 0.18
ubr1∆
  protein stability index: 3.2 ± 0.24

## TNSPQISVTRQVVLGGT [SMC2]
doa10∆
  protein stability index: 2.82 ± 0.078
pdr5∆
  protein stability index: 3 ± 0.075
san1∆
  protein stability index: 3.03 ± 0.064
ubr1∆
  protein stability index: 2.67 ± 0.048

## RVKAMEVDEKPTETYSD [RPT5]
doa10∆
  protein stability index: 3.46 ± 0.1
pdr5∆
  protein stability index: 3.32 ± 0.075
san1∆
  protein stability index: 3.1 ± 0.074
ubr1∆
  protein stability index: 3.12 ± 0.077

## YCDSMGRPQRKMMSFQA [RPB5]
doa10∆
  protein stability index: 3.5 ± 0.12
pdr5∆
  protein stability index: 3.19 ± 0.13
san1∆
  protein stability index: 3.48 ± 0.058
ubr1∆
  protein stability index: 3.3 ± 0.09

## EERERKDQYVPEVSALD [RPS17A]
doa10∆
  protein stability index: 2.91 ± 0.082
pdr5∆
  protein stability index: 3.13 ± 0.057
san1∆
  protein stability index: 3.17 ± 0.042
ubr1∆
  protein stability index: 2.82 ± 0.049

## LNLFSNVLKAPFIKSES [SIR4]
doa10∆
  protein stability index: 1.67 ± 0.061
pdr5∆
  protein stability index: 1.75 ± 0.087
san1∆
  protein stability index: 1.26 ± 0.13
ubr1∆
  protein stability index: 1.79 ± 0.056

## SVVRVLVHTQIRKTPLA [RPL3]
doa10∆
  protein stability index: 1.19 ± 0.076
pdr5∆
  protein stability index: 1.35 ± 0.096
san1∆
  protein stability index: 1.11 ± 0.14
ubr1∆
  protein stability index: 1.54 ± 0.046

## NDDSSSMNATMRNFSKQ [YDL088C/ASM4]
doa10∆
  protein stability index: 2.76 ± 0.087
pdr5∆
  protein stability index: 3.14 ± 0.11
san1∆
  protein stability index: 2.71 ± 0.13
ubr1∆
  protein stability index: 2.93 ± 0.091

## FREAIVATEPLLDILVK [PRP8]
doa10∆
  protein stability index: 1.86 ± 0.047
pdr5∆
  protein stability index: 2.16 ± 0.043
san1∆
  protein stability index: 1.96 ± 0.1
ubr1∆
  protein stability index: 1.54 ± 0.031

## NNDADKGRSYAYFMVGA [RIP1]
doa10∆
  protein stability index: 3.24 ± 0.11
pdr5∆
  protein stability index: 3.32 ± 0.1
san1∆
  protein stability index: 3.29 ± 0.084
ubr1∆
  protein stability index: 3.07 ± 0.075

## ITLHPSFFGPRMKQYLK [RPB7]
doa10∆
  protein stability index: 2.41 ± 0.12
pdr5∆
  protein stability index: 2.47 ± 0.12
san1∆
  protein stability index: 1.75 ± 0.21
ubr1∆
  protein stability index: 2.02 ± 0.061

## ELDAQTLPGDDELDQEI [RPT5]
doa10∆
  protein stability index: 3.32 ± 0.097
pdr5∆
  protein stability index: 3.26 ± 0.12
san1∆
  protein stability index: 3.44 ± 0.083
ubr1∆
  protein stability index: 3.59 ± 0.094

## NARIYNTEGSVVYEDSL [SNF2]
doa10∆
  protein stability index: 3.1 ± 0.084
pdr5∆
  protein stability index: 3.25 ± 0.085
san1∆
  protein stability index: 2.92 ± 0.11
ubr1∆
  protein stability index: 3.25 ± 0.13

## QNMQQSLQQMQHLQQLK [GAL11]
doa10∆
  protein stability index: 2.96 ± 0.095
pdr5∆
  protein stability index: 2.95 ± 0.07
san1∆
  protein stability index: 2.94 ± 0.074
ubr1∆
  protein stability index: 2.89 ± 0.098

## ATDPVAAKPDNLANFSN [SWP82]
doa10∆
  protein stability index: 3.27 ± 0.077
pdr5∆
  protein stability index: 3.18 ± 0.084
san1∆
  protein stability index: 3.21 ± 0.051
ubr1∆
  protein stability index: 3.26 ± 0.057

## LQDELHKVSSQSTNLNR [YCS4]
doa10∆
  protein stability index: 2.97 ± 0.061
pdr5∆
  protein stability index: 3.06 ± 0.068
san1∆
  protein stability index: 3.05 ± 0.045
ubr1∆
  protein stability index: 2.87 ± 0.053

## GVDLKLKYSKRRSLKKQ [CSN12]
doa10∆
  protein stability index: 2.89 ± 0.074
pdr5∆
  protein stability index: 2.75 ± 0.069
san1∆
  protein stability index: 3.27 ± 0.15
ubr1∆
  protein stability index: 3.05 ± 0.036

## FCPIVEEIVSNSSRFSD [YCS4]
doa10∆
  protein stability index: 1.97 ± 0.1
pdr5∆
  protein stability index: 1.35 ± 0.14
san1∆
  protein stability index: 1.68 ± 0.21
ubr1∆
  protein stability index: 2.35 ± 0.057

## KKSLEEDDEFEDFPIDT [SEM1]
doa10∆
  protein stability index: 3 ± 0.13
pdr5∆
  protein stability index: 3.02 ± 0.13
san1∆
  protein stability index: 2.66 ± 0.14
ubr1∆
  protein stability index: 3.02 ± 0.088

## PGGILRAQHVKKLATRP [RPL34A]
doa10∆
  protein stability index: 3.04 ± 0.24
pdr5∆
  protein stability index: 3.39 ± 0.21
san1∆
  protein stability index: 3.37 ± 0.16
ubr1∆
  protein stability index: 3.02 ± 0.14

## FEQPSQREEAKKVVKKA [RPL27A]
doa10∆
  protein stability index: 2.95 ± 0.15
pdr5∆
  protein stability index: 3.28 ± 0.13
san1∆
  protein stability index: 3.13 ± 0.15
ubr1∆
  protein stability index: 3.05 ± 0.14

## NNEKVVQYLRSVQDLGG [YML031W/NDC1]
doa10∆
  protein stability index: 3.1 ± 0.2
pdr5∆
  protein stability index: 3.04 ± 0.27
san1∆
  protein stability index: 3.44 ± 0.19
ubr1∆
  protein stability index: 3.61 ± 0.24

## SKNAQFICTTFRTDMLQ [SMC3]
doa10∆
  protein stability index: 2.11 ± 0.074
pdr5∆
  protein stability index: 1.49 ± 0.075
san1∆
  protein stability index: 1.5 ± 0.13
ubr1∆
  protein stability index: 1.05 ± 0.073

## TKNGTPNPNNMKTVQSP [GAL11]
doa10∆
  protein stability index: 2.96 ± 0.086
pdr5∆
  protein stability index: 2.92 ± 0.081
san1∆
  protein stability index: 2.77 ± 0.062
ubr1∆
  protein stability index: 2.91 ± 0.066

## SQPNNTPSFSFGKTTAN [YLR335W/NUP2]
doa10∆
  protein stability index: 2.76 ± 0.054
pdr5∆
  protein stability index: 2.84 ± 0.051
san1∆
  protein stability index: 2.78 ± 0.058
ubr1∆
  protein stability index: 2.87 ± 0.048

## IVNVLSKCLNLISDSNI [SWI3]
doa10∆
  protein stability index: 2.05 ± 0.043
pdr5∆
  protein stability index: 1.77 ± 0.038
san1∆
  protein stability index: 1.65 ± 0.073
ubr1∆
  protein stability index: 2 ± 0.029

## SGNNSKKRKNKSSGSSM [ROX3]
doa10∆
  protein stability index: 2.65 ± 0.14
pdr5∆
  protein stability index: 2.94 ± 0.075
san1∆
  protein stability index: 2.91 ± 0.12
ubr1∆
  protein stability index: 3.17 ± 0.068
